The results in this text go back to paper PMC10921019.

For one assay, the target named is Parkin [W403A] (human) (UniProt O60260).
The next assay addresses Parkin [F146A] (human) (UniProt O60260).
Assay [1] deals with Human wild type Parkin 1-465 (human) (UniProt O60260).
Assay [2] deals with Parkin WT (pSer 65) (human) (UniProt O60260).

Take “p-Ubiquitin-His (pSer65-ubiquitin-6His) (natural protein)”: the values for the EC50 of p-Ub-His for the activation of Parkin, MALDI-TOF auto-ubiquitylation assay (500 nM Parkin, 0.05-5 μM p-Ub-His, 30 min) (in the assay with Parkin [W403A] (human); with Parkin [F146A] (human); in assay [1]) were 200 nM, 400 nM and 2000 nM, respectively. In addition, the EC50 of p-Ub-His for the activation of Parkin, MALDI-TOF discharge assay (500 nM Parkin, 0.05-5 μM p-Ub-His, 30 min) in the assay with Parkin [W403A] (human) came out at 500 nM; with Parkin [F146A] (human) it was 600 nM; in assay [1] it was 1400 nM. For the same substance, the Ub-K formation %, MALDI-TOF discharge assay of p-Parkin without or with p-Ub-His (100, 500, 2500 nM) (% Ub-K formation) in assay [2] stood at 78. Also, in assay [2], the residual Ub % after 10 min, MALDI-TOF auto-ubiquitylation assay of p-Parkin without or with p-Ub-His (100, 500, 2500 nM) (% residual Ub) turned out to be 31.5.
